Publication PMC12371180, “Redox regulation of LSD1/CATALASE 2 phase separation condensates controls location and functions” (The New Phytologist, 2025)

T1: PEX5-CAT2 complex (Atto-488-labelled CAT2 saturated with PEX5) (Arabidopsis thaliana, UniProt P25819 1-492; Q9FMA3 1-728, labelled with Atto-488 (protein to dye 1:1))
T1 construct: catalase 2 (CAT2), Arabidopsis thaliana, full-length recombinant protein; as the chain of m2; PEX5, peroxisomal PTS1 import receptor, Arabidopsis thaliana, full-length recombinant protein; as the chain of m3
T1 sequence (looked up) 1: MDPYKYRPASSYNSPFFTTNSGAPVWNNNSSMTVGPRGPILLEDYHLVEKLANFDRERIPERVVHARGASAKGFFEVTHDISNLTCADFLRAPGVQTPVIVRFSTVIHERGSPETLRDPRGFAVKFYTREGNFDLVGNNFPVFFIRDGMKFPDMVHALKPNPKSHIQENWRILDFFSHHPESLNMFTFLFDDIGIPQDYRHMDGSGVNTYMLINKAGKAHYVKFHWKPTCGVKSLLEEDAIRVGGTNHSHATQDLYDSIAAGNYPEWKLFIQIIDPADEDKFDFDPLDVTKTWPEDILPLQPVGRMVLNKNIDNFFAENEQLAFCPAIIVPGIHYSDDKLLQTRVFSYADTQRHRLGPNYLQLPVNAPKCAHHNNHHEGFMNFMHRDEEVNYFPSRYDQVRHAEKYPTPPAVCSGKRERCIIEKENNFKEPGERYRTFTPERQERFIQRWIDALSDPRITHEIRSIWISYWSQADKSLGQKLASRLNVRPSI
T1 sequence (looked up) 2: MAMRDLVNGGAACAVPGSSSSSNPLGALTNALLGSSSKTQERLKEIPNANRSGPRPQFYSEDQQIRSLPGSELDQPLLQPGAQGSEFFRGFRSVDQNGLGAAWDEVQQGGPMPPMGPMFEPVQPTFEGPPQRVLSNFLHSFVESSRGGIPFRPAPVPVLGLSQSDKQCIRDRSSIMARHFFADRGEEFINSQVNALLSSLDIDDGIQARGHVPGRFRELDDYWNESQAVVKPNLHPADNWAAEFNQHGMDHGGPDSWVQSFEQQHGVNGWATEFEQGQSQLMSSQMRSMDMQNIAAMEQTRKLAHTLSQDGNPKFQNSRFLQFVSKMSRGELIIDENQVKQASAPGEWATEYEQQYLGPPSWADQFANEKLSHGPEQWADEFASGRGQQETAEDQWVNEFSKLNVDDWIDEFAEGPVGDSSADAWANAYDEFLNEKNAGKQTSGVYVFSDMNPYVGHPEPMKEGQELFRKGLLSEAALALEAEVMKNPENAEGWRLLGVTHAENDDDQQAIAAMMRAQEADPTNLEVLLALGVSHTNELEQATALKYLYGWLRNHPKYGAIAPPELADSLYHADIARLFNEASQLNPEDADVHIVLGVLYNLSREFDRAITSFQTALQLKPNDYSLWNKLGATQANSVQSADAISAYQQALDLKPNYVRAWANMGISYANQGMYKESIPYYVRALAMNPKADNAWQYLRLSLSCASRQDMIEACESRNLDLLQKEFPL

T2: peroxisome import receptor PEX5, recombinant Arabidopsis thaliana, full-length (Arabidopsis thaliana, UniProt Q9FMA3 1-728, unlabelled in MST; labelled with Atto-647 in the condensate imaging)
T2 construct: PEX5, peroxisomal PTS1 import receptor, Arabidopsis thaliana, full-length recombinant protein; cloning not described; The cloning of the PEX5 construct is not described in the methods
T2 sequence (looked up): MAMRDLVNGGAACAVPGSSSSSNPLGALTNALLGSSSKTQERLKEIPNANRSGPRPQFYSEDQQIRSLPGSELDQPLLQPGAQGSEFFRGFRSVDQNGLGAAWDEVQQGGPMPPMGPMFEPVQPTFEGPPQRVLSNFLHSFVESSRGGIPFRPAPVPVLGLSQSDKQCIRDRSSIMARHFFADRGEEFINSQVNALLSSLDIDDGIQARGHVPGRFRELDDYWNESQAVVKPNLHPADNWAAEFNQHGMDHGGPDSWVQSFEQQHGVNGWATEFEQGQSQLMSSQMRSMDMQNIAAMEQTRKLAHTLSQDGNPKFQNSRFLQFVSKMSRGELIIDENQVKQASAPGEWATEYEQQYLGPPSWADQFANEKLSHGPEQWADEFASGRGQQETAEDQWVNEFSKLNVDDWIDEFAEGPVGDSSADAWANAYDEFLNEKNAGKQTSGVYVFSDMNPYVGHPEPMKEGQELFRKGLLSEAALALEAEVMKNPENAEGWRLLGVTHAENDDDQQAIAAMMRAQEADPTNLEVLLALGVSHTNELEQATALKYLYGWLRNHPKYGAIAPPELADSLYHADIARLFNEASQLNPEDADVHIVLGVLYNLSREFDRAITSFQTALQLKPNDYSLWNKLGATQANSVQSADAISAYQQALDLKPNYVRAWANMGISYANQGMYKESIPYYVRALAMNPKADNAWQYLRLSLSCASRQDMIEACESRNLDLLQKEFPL


Columns and labels:
[1] = target: T1, PEX5-CAT2 complex (Atto-488-labelled …); experiment: MST; Atto-488-labelled CAT2 saturated with PEX5 (10-fold above the affinity value) before titration of LSD1; 25°C, 20 mM HEPES pH 7.5, 20 mM NaCl, 0.05% Tween 20; conditions: both partners purified
[2] = target: catalase 2 (CAT2), recombinant Arabidopsis thaliana, full-length (Arabidopsis thaliana) (UniProt P25819)
[3] = target: T2, peroxisome import receptor PEX5, …; experiment: MST; 100 nM Atto-488-labelled CAT2, unlabelled partner serially diluted; 25°C, 20 mM HEPES pH 7.5, 20 mM NaCl, 0.05% Tween 20; Monolith NT.115; conditions: both partners purified

Binder	Kd [1]	catalase activity (change of 240 nm absorbance in 30 mM H2O2) of 10 μM CAT2 mixed with 10 μM LSD1 to form LSD1-CAT2 condensates, against CAT2 alone [2]	Kd [3]
LESION SIMULATING DISEASE1 (LSD1), recombinant Arabidopsis thaliana, full-length (natural protein, UniProt P94077-2 1-184, looked up, unlabelled when titrated in MST; labelled with Atto-550 in the condensate imaging, LSD1 (LESION SIMULATING DISEASE1), Arabidopsis thaliana, full-length, cloned into pET28b with NdeI and NotI; pET28b with NdeI cloning would usually add an N-terminal His tag (surmise; source: dialysed)) MQDQLVCHGCRNLLMYPRGASNVRCALCNTINMVPPPPPPHDMAHIICGGCRTMLMYTRGASSVRCSCCQTTNLVPAHSNQVAHAPSSQVAQINCGHCRTTLMYPYGASSVKCAVCQFVTNVNMSNGRVPLPTNRPNGTACPPSTSTSTPPSQTQTVVVENPMSVDESGKLVSNVVVGVTTDKK	136 ± 39.8 nM	2.5 fold	
catalase 2 (CAT2), recombinant Arabidopsis thaliana, full-length (enzyme, UniProt P25819 1-492, looked up, labelled with Atto-488 (protein to dye 1:1) in MST and in the condensate imaging, catalase 2 (CAT2), Arabidopsis thaliana, full-length recombinant protein; cloned into pET28b with NdeI and XhoI; pET28b with NdeI cloning would usually add an N-terminal His tag (surmise)) MDPYKYRPASSYNSPFFTTNSGAPVWNNNSSMTVGPRGPILLEDYHLVEKLANFDRERIPERVVHARGASAKGFFEVTHDISNLTCADFLRAPGVQTPVIVRFSTVIHERGSPETLRDPRGFAVKFYTREGNFDLVGNNFPVFFIRDGMKFPDMVHALKPNPKSHIQENWRILDFFSHHPESLNMFTFLFDDIGIPQDYRHMDGSGVNTYMLINKAGKAHYVKFHWKPTCGVKSLLEEDAIRVGGTNHSHATQDLYDSIAAGNYPEWKLFIQIIDPADEDKFDFDPLDVTKTWPEDILPLQPVGRMVLNKNIDNFFAENEQLAFCPAIIVPGIHYSDDKLLQTRVFSYADTQRHRLGPNYLQLPVNAPKCAHHNNHHEGFMNFMHRDEEVNYFPSRYDQVRHAEKYPTPPAVCSGKRERCIIEKENNFKEPGERYRTFTPERQERFIQRWIDALSDPRITHEIRSIWISYWSQADKSLGQKLASRLNVRPSI			2350 ± 279 nM
